Measurements as given in paper PMC2774812 (Journal of molecular biology, 2009).
Where a chain is given by its changes, count along the chain named. In names and notes the source's numbering stands.

B1: brome mosaic virus (BMV) capsid protein, wild type (natural protein)
chain: STSGTGKMTRAQRRAAARRNRWTARVQPVIVEPLAAGQGKAIKAIAGYSISKWEASSDAITAKATNAMSITLPHELSSEKNKELKVGRVLLWLGLLPSVAGRIKACVAEKQAQAEAAFQVALAVADSSKEVVAAMYTDAFRGATLGDLLNLQIYLYASEAVPAKAVVVHLEVEHVRPTFDDFFTPVYR
B2: brome mosaic virus (BMV) capsid protein D148A (natural protein)
chain: B1 chain with D147A
B3: brome mosaic virus (BMV) capsid protein R142A (natural protein)
chain: B1 chain with R141A

Biological target: the molecule itself

Row | Protein | binding result
1 | B1 | binds
2 | B2 | binds
3 | B3 | binds
